Here are results for four molecules from patent US6531286, “Homogeneous detection of a target through nucleic acid ligand-ligand beacon interaction” (Gilead Sciences, Inc.).

The target in data set [1] is T1, L-selectin (Homo sapiens, UniProt P14151 P14151:39-332).
T1 sequence: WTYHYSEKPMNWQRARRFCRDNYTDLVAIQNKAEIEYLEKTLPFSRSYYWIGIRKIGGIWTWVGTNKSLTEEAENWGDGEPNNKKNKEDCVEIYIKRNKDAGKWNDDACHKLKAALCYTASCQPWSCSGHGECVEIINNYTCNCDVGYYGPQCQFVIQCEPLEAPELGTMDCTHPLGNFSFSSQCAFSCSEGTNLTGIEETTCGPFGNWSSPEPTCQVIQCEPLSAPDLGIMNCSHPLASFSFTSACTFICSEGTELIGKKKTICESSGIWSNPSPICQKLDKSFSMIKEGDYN
The experiment in a line: competition; specificity control, little or no fluorescence change; 200 nM aptamer, SHMCK, 4 uM tRNA, 37C. To be noted: tags: R & D Systems. The protocol: (§1) Specifically, L-Selectin nucleic acid ligand (200 nM) was mixed with increasing concentrations of P-Selectin in SHMCK buffer containing 4 µM tRNA. The mixture was incubated at 37° C. for 15 minutes. Then 220 nM L-Selectin ligand beacon was added and the mixture was incubated an additional 10 minutes at the same temperature and fluorescence was measured (FIG. 8C; (•)). P-Selectin nucleic acid ligand (200 nM) was mixed with increasing concentrations of L-Selectin in SHMCK buffer containing 4 µM tRNA at 37° C. for 15 minutes. Then 220 nM P-Selectin ligand beacon was added, incubated for an additional 10 minutes at the same temperature and fluorescence was measured (FIG. 8C; (○)).

The target of data set [2] is T2, P-selectin (Homo sapiens, UniProt P16109 P16109:42-771). Nature of the data set: competition; ligand beacon (SEQ:8); 200 nM aptamer, SHMCK buffer 1 mM MgCl2 1 mM CaCl2, 4 uM tRNA, pH 7.4, 37C; also detected in plasma; FIG. 3A lists aptamer as SEQ:12. To be noted: tags: R & D Systems. As to the method: Open circles represent the fluorescence signal obtained when the 100 nM PDGF aptamer was first incubated with 100 nM PDGF ligand beacon before the protein was added. Closed circles indicate the signal generated when 100 nM PDGF ligand beacon was mixed with increasing concentration of the PDGF AB-dimer in the absence of the aptamer. TAQ DNA Polymerase An assay using constant concentrations of TAQ nucleic acid ligand and TAQ ligand beacon, and varying concentrations of TAQ DNA polymerase, was carried out as described above. Again, the fluorescence emission decreased with increasing amounts of the ligand Taq Polymerase. […] Then, L-selectin ligand beacon was added to a final concentration equivalent to that of the aptamer, incubated additional 10 minutes at 37° C. and fluorescence was measured. […] The fluorescence signal was then measured as described above. […]
T2 sequence (P16109 42-771, one chain of several): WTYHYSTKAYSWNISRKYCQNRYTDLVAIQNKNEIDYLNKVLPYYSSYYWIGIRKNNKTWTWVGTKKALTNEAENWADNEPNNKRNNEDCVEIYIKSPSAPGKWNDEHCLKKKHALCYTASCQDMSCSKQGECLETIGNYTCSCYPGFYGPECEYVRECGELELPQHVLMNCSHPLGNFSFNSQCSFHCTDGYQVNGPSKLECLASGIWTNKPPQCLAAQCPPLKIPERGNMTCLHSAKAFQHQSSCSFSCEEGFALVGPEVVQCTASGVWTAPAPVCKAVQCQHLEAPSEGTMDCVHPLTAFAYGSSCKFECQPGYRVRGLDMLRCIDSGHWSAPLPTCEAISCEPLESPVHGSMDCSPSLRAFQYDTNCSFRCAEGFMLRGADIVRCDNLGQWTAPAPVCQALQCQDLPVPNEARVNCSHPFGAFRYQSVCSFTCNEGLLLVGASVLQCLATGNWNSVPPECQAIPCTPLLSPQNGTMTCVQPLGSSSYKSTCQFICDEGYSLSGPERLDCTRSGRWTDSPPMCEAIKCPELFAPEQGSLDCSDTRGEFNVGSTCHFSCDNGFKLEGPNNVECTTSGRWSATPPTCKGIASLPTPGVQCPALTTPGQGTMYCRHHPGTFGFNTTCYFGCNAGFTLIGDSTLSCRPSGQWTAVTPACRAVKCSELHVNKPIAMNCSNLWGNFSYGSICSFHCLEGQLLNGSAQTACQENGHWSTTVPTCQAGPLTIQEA
P-selectin aptamer (200 nM) was mixed with increasing concentration of human P-selectin in SHMCK buffer [20 mM HEPES, 120 mM NaCl, 5 mM KCl, 1 mM MgCl_2, 1 mM CaCl_2, 4µM tRNA, (pH 7.4)] and incubated for 10 minutes at 37° C. Then, P-selectin ligand beacon was added to a final concentration of 200 nM, incubated for additional 10 minutes at 37° C. and fluorescence was measured. […]

The target in data set [3] is T3, PDGF-AB (platelet-derived growth factor AB dimer) (Homo sapiens, UniProt P04085;P01127 P04085:87-211,P01127:82-190). The experiment in a line: competition; ligand beacon (SEQ:2) fluorescence decreases with protein; 160 nM aptamer, PBSM buffer 1 mM MgCl2, 4 uM tRNA, pH 7.4, 37C; also detected in plasma; FIG. 3A lists aptamer as SEQ:10. The following applies: tags: R & D Systems; chain copies: heterodimer A+B (stated); predicted 3-way junction. The protocol:
Example 5 Protein Detection Using Ligand Beacon Assays PDGF AB-Dimer The PDGF ligand beacon was used in an assay in which 160 nM PDGF nucleic acid ligand (SEQ ID NO:1) was mixed with an increasing concentration of PDGF AB-dimer in PBSM buffer [10.1 mM Na_2HPO_4, 1.8 mM KH_2PO_4, 137 mM NaCl, 2.7 mM KCl, 1 mM MgCl_2, 4 μM tRNA (pH 7.4)] for 10 minutes at 37° C. Then, ligand beacon (SEQ ID NO:2) was added to a final concentration of 160 nM and the mixture was incubated for 10 minutes at 37° C. A measurement of fluorescein emission at 530 nm was made for each concentration of PDGF using 488 nm monochromatic laser light for excitation in a 96 well format Vistra Fluorimager SI. The average value of fluorescence signals derived from duplicates was plotted against the corresponding log concentration of the concentration PDGF AB-dimer in nanomoles.

Data set [4] deals with T1, L-selectin. Nature of the data set: competition; ligand beacon (SEQ:6); 200 or 800 nM aptamer, SHMCK buffer 1 mM MgCl2 1 mM CaCl2, 4 uM tRNA, pH 7.4, 37C; also detected in plasma. The following applies: tags: R & D Systems. The protocol: (§2) Open circles represent the fluorescence signal obtained when the 100 nM PDGF aptamer was first incubated with 100 nM PDGF ligand beacon before the protein was added. Closed circles indicate the signal generated when 100 nM PDGF ligand beacon was mixed with increasing concentration of the PDGF AB-dimer in the absence of the aptamer. TAQ DNA Polymerase An assay using constant concentrations of TAQ nucleic acid ligand and TAQ ligand beacon, and varying concentrations of TAQ DNA polymerase, was carried out as described above. Again, the fluorescence emission decreased with increasing amounts of the ligand Taq Polymerase. Human L-Selectin A fixed concentration of L-selectin aptamer was mixed with increasing concentration of human L-selectin in SHMCK buffer [20 mM HEPES, 120 mM NaCl, 5 mM KCl, 1 mM MgCl_2, 1 mM CaCl_2, 4 µM tRNA, (pH 7.4)] and incubated for 10 minutes at 37° C. Then, L-selectin ligand beacon was added to a final concentration equivalent to that of the aptamer, incubated additional 10 minutes at 37° C. and fluorescence was measured. The results are depicted in FIGS. 7A and B. It can be seen that the dynamic range of the assay can be easily varied by changing the concentration of the nucleic acid ligand/ligand beacon pair. […] The fluorescence signal was then measured as described above. […]

The target of data set [5] is T2, P-selectin. Nature of the data set: competition; specificity control, little or no fluorescence change; 200 nM aptamer, SHMCK, 4 uM tRNA, 37C. To be noted: tags: R & D Systems. As to the method:
as §1

The target of a further data set is Taq DNA polymerase (Thermus aquaticus, UniProt P19821 P19821:1-832). Nature of the data set: competition; ligand beacon (SEQ:4) fluorescence decreases with protein; PBSM buffer, 4 uM tRNA, 37C; FIG. 3A lists aptamer as SEQ:9. To be noted: tags: Roche Molecular Systems; predicted stem-loop. The protocol:
as §2

Data set [6] deals with T3, PDGF-AB (platelet-derived growth factor …). The experiment in a line: competition; specificity control, no concentration-dependent signal reduction; 100 nM aptamer, PBSM, 4 uM tRNA, 37C. To be noted: tags: R & D Systems; chain copies: heterodimer A+B (stated); predicted stem-loop. As to the method: In the example shown in FIG. 4C, TAQ-nucleic acid ligand (100 nM) was mixed with increasing concentrations of PDGF in PBSM buffer containing 4 μM tRNA at 37° C. for 10 minutes. Then 110 nM TAQ-ligand beacon was added, incubated for an additional 10 minutes at the same temperature and fluorescence was measured.

T3 sequence (P01127 82-190, chain 2 of 2, other chains not shown): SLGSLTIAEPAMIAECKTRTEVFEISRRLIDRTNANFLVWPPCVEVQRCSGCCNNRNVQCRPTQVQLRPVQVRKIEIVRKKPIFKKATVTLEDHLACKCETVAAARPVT
Sequence of Taq DNA polymerase (P19821 whole entry, one chain of several): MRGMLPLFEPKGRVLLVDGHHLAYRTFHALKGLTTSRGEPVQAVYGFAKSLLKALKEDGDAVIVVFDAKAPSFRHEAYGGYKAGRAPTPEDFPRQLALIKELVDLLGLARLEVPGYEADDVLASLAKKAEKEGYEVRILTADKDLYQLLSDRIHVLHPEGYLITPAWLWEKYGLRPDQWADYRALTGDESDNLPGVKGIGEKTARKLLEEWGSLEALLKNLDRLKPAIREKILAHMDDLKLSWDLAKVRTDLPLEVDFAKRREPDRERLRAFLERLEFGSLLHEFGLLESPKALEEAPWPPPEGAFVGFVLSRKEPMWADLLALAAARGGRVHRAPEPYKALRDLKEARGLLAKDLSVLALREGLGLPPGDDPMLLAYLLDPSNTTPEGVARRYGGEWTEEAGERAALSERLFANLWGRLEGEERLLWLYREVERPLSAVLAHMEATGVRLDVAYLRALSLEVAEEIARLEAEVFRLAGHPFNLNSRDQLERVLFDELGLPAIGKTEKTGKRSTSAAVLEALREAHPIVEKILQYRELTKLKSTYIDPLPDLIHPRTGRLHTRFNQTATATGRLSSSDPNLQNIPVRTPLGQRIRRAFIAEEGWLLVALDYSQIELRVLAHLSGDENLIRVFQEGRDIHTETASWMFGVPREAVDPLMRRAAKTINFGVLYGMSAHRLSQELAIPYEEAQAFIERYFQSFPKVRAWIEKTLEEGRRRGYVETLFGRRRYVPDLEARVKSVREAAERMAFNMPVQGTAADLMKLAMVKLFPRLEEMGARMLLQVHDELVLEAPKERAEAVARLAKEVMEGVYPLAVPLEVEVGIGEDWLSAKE

As to CUCAACGAGCCAGGAACAUCGAGGUCAGCAAACGCGAG (ssRNA, 2'-F at all pyrimidines) [P-selectin aptamer], the binding result with L-selectin [1] is listed as “no binding”; in the data set with P-selectin [2], “binds”.
Take TGGGAGGGCGCGTTCTTCGTGGTTACTTTTAGTCCCGT (ssDNA) [PDGF aptamer]: in data set [3], the binding result was “binds”.
TAGCCAAGGTAACCAGTACAAGGTGCTAAACGTAATGGCTTCGGCTTAC (ssDNA) [L-selectin aptamer]: the values for the binding result with L-selectin [4] and with P-selectin [5] were “binds” and “no binding”, respectively.

B1: Taq aptamer (ssDNA)
DNA: TGGCGGAGCGATCATCTCAGAGCATTCTTAGCGTTTTGTTCTTGTGTATGA
Regarding B1, the binding result is given as “binds” in the data set with Taq DNA polymerase and “no binding” in data set [6].
